In US20100068199A1 (RINAT NEUROSCIENCE, published 2010):
Like-named read-outs stand apart in the source and are kept apart here.

Columns and labels:
recombinant human PCSK9 [1] = biological target: T1, recombinant human PCSK9 (human, UniProt Q8NBP7 31-692); assay: competition ELISA; antibody blocks biotinylated PCSK9 binding to immobilized recombinant LDLR extracellular domain
T1 construct: also called hPCSK9

recombinant mouse PCSK9 [2] = biological target: T2, recombinant mouse PCSK9 (mouse, UniProt Q80W65 35-694); assay: as above
T2 construct: also called mPCSK9; murine PCSK9

rat PCSK9 in plasma = rat PCSK9 in plasma (rat, UniProt P59996 31-691); assay: antibody incubated with plasma, complexes purified and probed by Western blot
Method: To determine the species specificity of the anti-PCSK9 antibodies, antibodies were incubated with plasma from different species and the resultant complexes were purified and probed by an independent anti PCSK9 antibody on Western blots. […] Id.

recombinant human PCSK9 [3] = biological target: T1, recombinant human PCSK9; assay: TR-FRET in solution at neutral pH: biotinylated human PCSK9 (30 nM) binding to Europium labeled LDLR extracellular domain (10 nM) blocked by the mAb
recombinant human PCSK9 [4] = biological target: T1, recombinant human PCSK9; assay: SPR (Biacore 3000); full-length IgG captured on anti-mouse IgG, PCSK9 injected
Method: (§1) The affinities of PCSK9 antibodies to PCSK9 were measured on a surface plasmon resonance Biacore 3000 biosensor equipped with a research-grade sensor chip using HBS-EP running buffer (Biacore AB, Uppsala, Sweden—now GE Healthcare). Rabbit polyclonal anti-Ms IgGs were amine-coupled at saturating levels onto the chip using a standard N-hydroxysuccinimide/ethyldimethylaminopropyl carbodiimide (NHS/EDC) chemistry. The buffer was switched to HBS-EP+1 mg/mL BSA+1 mg/mL CM-dextran.
(§2) Dissociation was monitored for 5 min. The chip was regenerated after the last injection of each titration with two 30 sec pulses of 100 mM phosphoric acid. Buffer cycles provided blanks for double-referencing the data, which were then fit globally to a simple binding model using Biaevaluation software v.4.1. Affinities were deduced from the quotient of the kinetic rate constants (KD=koff/kₒₙ).

recombinant mouse PCSK9 [5] = biological target: T2, recombinant mouse PCSK9; assay: as above
Method: as §1, §2

recombinant human PCSK9 [6] = biological target: T1, recombinant human PCSK9; assay: ELISA, blocking: biotinylated human PCSK9 (0.4nM) binding to immobilized human LDLR extracellular domain, pH7.5
Method: (§3) ELISA plates (Corning Mixisorb) were coated with a solution of 1 μg/ml recombinant LDLR extracellular domain (R&D Systems) in each well at 4 C overnight, blocked with 2% BSA+PBS for 2 hrs at room temperature, and then washed 5 times with washing buffer (1×PBS+0.05% Tween-20). Wells were incubated with 50 μl of indicated concentrations of biotinylated PCSK9 protein for 1 hr RT. LDLR-PCSK9 binding can be stabilized by adding 50 μl of 4% FDH+4% sucrose+PBS solution and incubate for 5 min. Wells were washed 5 times with washing buffer, incubated with 1:2000 dilution of HRP conjugated Strepavidin (Invitrogen) for 1 hr at RT, washed 5 times with washing buffer. TMB substrate was added to the wells, the solution was incubated 20 to 30 min at RT, and the reaction was terminated using 1 M phosphoric acid. Signals were read at 450 nm.

recombinant mouse PCSK9 [7] = biological target: T2, recombinant mouse PCSK9; assay: ELISA, blocking: biotinylated mouse PCSK9 (0.8nM) binding to immobilized human LDLR extracellular domain, pH7.5
Method: as §3

PCSK9 [8] = biological target: T3, PCSK9
T3 construct: neither names the species

recombinant human PCSK9 [9] = biological target: T1, recombinant human PCSK9; assay: Biacore; format not described
recombinant mouse PCSK9 [10] = biological target: T2, recombinant mouse PCSK9; assay: Biacore; format not described
PCSK9 [11] = biological target: T3, PCSK9; remark: listed apart in the source

T1 sequence (Q8NBP7 31-692 limits assumed): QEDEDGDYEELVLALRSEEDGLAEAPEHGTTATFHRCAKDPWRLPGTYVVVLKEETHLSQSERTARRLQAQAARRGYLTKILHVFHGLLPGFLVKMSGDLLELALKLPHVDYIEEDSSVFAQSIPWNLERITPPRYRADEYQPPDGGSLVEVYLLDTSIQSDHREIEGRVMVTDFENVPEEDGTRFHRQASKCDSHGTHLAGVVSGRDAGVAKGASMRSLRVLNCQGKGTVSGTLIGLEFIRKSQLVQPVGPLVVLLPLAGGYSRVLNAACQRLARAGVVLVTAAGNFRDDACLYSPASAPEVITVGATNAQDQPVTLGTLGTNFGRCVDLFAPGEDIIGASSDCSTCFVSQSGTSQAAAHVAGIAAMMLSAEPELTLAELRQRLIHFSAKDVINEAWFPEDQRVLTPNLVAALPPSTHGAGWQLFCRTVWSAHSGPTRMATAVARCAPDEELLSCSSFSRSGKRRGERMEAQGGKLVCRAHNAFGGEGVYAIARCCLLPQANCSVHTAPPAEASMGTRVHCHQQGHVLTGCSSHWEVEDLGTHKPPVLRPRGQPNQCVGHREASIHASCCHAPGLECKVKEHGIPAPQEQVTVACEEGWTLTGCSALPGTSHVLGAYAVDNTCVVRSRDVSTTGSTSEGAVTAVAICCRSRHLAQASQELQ
Chain of rat PCSK9 in plasma (P59996 31-691 limits assumed): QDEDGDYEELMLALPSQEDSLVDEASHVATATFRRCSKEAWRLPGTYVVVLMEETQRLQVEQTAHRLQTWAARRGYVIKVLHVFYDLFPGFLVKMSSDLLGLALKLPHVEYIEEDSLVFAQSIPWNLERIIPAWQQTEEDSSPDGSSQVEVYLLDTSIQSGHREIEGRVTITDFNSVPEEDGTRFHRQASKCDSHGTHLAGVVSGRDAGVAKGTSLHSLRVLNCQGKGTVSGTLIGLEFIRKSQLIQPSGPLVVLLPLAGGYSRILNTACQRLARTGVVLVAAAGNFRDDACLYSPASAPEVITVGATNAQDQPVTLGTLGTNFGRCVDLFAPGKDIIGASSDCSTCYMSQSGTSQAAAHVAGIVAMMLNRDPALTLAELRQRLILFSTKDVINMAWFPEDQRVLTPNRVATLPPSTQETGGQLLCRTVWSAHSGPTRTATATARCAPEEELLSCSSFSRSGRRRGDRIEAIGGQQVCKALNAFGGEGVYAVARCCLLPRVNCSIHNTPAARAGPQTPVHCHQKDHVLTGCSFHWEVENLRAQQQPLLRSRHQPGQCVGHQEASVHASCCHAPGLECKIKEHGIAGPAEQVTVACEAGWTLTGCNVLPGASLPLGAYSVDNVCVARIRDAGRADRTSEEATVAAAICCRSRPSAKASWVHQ
T2 sequence (Q80W65 other isoform, or with tags, fused parts or gaps limits assumed): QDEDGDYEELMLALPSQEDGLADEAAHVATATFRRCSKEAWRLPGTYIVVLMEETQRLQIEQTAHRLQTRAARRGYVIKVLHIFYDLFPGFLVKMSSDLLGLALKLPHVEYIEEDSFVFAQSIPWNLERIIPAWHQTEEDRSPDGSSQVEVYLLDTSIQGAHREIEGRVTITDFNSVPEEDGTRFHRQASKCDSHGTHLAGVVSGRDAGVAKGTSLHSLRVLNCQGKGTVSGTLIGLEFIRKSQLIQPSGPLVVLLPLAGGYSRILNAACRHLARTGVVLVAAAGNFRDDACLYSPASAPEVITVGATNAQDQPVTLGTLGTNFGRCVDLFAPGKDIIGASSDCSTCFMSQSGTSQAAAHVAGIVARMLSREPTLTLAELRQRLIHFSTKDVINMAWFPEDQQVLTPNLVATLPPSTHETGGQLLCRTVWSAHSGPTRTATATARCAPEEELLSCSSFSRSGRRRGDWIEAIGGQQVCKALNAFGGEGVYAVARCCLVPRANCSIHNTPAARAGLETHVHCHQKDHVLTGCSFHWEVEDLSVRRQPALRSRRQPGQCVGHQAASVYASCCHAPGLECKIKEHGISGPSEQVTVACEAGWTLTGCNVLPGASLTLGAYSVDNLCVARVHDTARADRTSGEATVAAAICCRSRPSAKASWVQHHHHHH
T3 sequence (prodomain, as listed by the source limits assumed, chain 1 of 2): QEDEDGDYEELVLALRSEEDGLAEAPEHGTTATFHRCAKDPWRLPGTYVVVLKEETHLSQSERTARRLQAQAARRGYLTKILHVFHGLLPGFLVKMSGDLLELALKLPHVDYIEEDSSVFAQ
T3 sequence (chain, as listed by the source limits assumed, chain 2 of 2): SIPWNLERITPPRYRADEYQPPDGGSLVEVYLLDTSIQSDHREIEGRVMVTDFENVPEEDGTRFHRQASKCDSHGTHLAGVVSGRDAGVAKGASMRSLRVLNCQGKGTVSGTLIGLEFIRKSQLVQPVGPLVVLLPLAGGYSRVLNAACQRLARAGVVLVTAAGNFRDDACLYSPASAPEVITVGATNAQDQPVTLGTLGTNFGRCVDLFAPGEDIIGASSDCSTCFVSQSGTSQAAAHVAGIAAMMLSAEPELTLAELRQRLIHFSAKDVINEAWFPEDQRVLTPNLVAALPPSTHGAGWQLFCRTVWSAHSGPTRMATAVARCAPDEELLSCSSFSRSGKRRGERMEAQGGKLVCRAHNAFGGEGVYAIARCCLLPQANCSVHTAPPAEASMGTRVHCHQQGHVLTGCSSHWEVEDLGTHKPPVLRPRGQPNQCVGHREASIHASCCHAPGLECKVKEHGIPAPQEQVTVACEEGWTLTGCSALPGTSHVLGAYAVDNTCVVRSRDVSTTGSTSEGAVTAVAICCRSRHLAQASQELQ

| Binder | IC50 (recombinant human PCSK9 [1]) [nM] | IC50 (recombinant mouse PCSK9 [2]) [nM] | binding result (rat PCSK9 in plasma) | IC50 (recombinant human PCSK9 [3]) [nM] | Kd (recombinant human PCSK9 [4]) [nM] | koff (recombinant human PCSK9 [4]) [s⁻¹] | kon (recombinant human PCSK9 [4]) [M⁻¹ s⁻¹] | Kd (recombinant mouse PCSK9 [5]) [nM] | IC50 (read off the curve) (recombinant human PCSK9 [6]) [nM] | IC50 (read off the curve) (recombinant mouse PCSK9 [7]) [nM] | Kd (PCSK9 [8]) [nM] | koff (recombinant mouse PCSK9 [5]) [s⁻¹] | kon (recombinant mouse PCSK9 [5]) [M⁻¹ s⁻¹] | Kd (recombinant human PCSK9 [9]) [nM] | Kd (recombinant mouse PCSK9 [10]) [nM] | Kd (PCSK9 [11]) [nM] |
| --- | --- | --- | --- | --- | --- | --- | --- | --- | --- | --- | --- | --- | --- | --- | --- | --- |
| anti-PCSK9 antagonist monoclonal antibody 7D4 (antibody, V domains shown, Murine full-length IgG from a hybridoma; also called 7D4.4 (subclone); ATCC PTA-8983) VH: EVKLVESEGGLVQPGSSMKLSCTASGFTFSDYYMAWVRQVPEKGLEWVANINYDGSNTSYLDSLKSRFIISRDNAKNILYLQMSSLKSEDTATYYCAREKFAAMDYWGQGTSVTVSS VL: DIVMTQSHKFMSTSFGDRVSITCKASQDVSNALAWYQQKPGHSPKLLIFSASYRYTGVPDRFTGSGSGTDFTFTISSVQAEDLAVYYCQQHYSTPWTFGGGTKLEIKR | 1.5 | 1 | binds | 5.4 | 6.4 | 0.000794 | 125000 | 1.3 | ~1 | ~0.9 |  |  |  |  |  |  |
| anti-PCSK9 antagonist monoclonal antibody 4A5 (antibody, V domains shown, Murine full-length IgG from a hybridoma; also called 4A5.G3 (subclone); ATCC PTA-8985) VH: EVQLQQSGPELVKPGASVKISCKASGYTFTDYYMNWVKQSHGKSLEWIGDINPNNGGTTYNQKFKGKATLTVDKSYSTAYMELRSLTSEDSAVYYCARWLLFAYWGQGTLVTVSA VL: DIVMTQSQKFMSTSVGDRVSVTCKASQNVGTNVAWYQQKPGQSPKALIYSASYRYSGVPDRFTGSGSGTDFTLTISNVLSEDLAEYFCQQFYSYPYTFGGGTKLEIKR | 0.4 | 3 | binds | 7.1 | 2.8 | 0.000189 | 66600 | 5.1 | ~0.2 | ~3 |  | 0.00072 | 141000 |  |  |  |
| L1L3 humanized anti-PCSK9 monoclonal antibody (antibody, V domains shown) VH: QVQLVQSGAEVKKPGASVKVSCKASGYTFTSYYMHWVRQAPGQGLEWMGEISPFGGRTNYNEKFKSRVTMTRDTSTSTVYMELSSLRSEDTAVYYCARERPLYASDLWGQGTTVTVSS VL: DIQMTQSPSSLSASVGDRVTITCRASQGISSALAWYQQKPGKAPKLLIYSASYRYTGVPSRFSGSGSGTDFTFTISSLQPEDIATYYCQQRYSLWRTFGQGTKLEIKR |  |  |  |  |  |  |  |  |  |  |  |  |  | 0.1 | 0.2 | 0.007 |

More lines, now with the values ahead:

| IC50 (recombinant human PCSK9 [1]) [nM] | IC50 (recombinant mouse PCSK9 [2]) [nM] | binding result (rat PCSK9 in plasma) | IC50 (recombinant human PCSK9 [3]) [nM] | Kd (recombinant human PCSK9 [4]) [nM] | koff (recombinant human PCSK9 [4]) [s⁻¹] | kon (recombinant human PCSK9 [4]) [M⁻¹ s⁻¹] | Kd (recombinant mouse PCSK9 [5]) [nM] | IC50 (read off the curve) (recombinant human PCSK9 [6]) [nM] | IC50 (read off the curve) (recombinant mouse PCSK9 [7]) [nM] | Kd (PCSK9 [8]) [nM] | koff (recombinant mouse PCSK9 [5]) [s⁻¹] | kon (recombinant mouse PCSK9 [5]) [M⁻¹ s⁻¹] | Kd (recombinant human PCSK9 [9]) [nM] | Kd (recombinant mouse PCSK9 [10]) [nM] | Kd (PCSK9 [11]) [nM] | Binder |
| --- | --- | --- | --- | --- | --- | --- | --- | --- | --- | --- | --- | --- | --- | --- | --- | --- |
| 0.4 | 3 | binds | 6 | 1 | 8.55e-05 | 84700 | 3.9 | ~0.3 | ~3 | 1.1 | 0.000489 | 127000 |  |  |  | anti-PCSK9 antagonist monoclonal antibody 5A10 (antibody, V domains shown, Murine full-length IgG from a hybridoma; Mouse precursor of L1L3; also called 5A10.B8 (subclone)) VH: QVQLQQPGAELVKPGASVKLSCKASGYTFTSYWMHWVKQRPGQGLEWIGEINPSNGRTNYNEKFKSKATLTVDKSSSTAYMQLSSLTSEDSAVYYCARERPLYAMDYWGQGTSVTVSS VL: DIVMTQSHKFMSTSVGDRVSITCKASQDVSTAVAWYQQKPGQSPKLLIYSASYRYTGVPDRFTGSGSGTDFTFTISSVQAEDLAVYYCQQRYSTPRTFGGGTKLEIKR |
| 1.5 | 10 | binds | 6.5 | 6.4 | 0.000584 | 91500 | 17.7 | ~2 | ~10 |  | 0.00197 | 111000 |  |  |  | anti-PCSK9 antagonist monoclonal antibody 6F6 (antibody, V domains shown, Murine full-length IgG from a hybridoma; also called 6F6.G10.3 (subclone); ATCC PTA-8984) VH: EVQLQQSGPELVKPGASVKISCKASGYTFTDYYMNWVKQSHGKSLEWIGDINPNNGGTSYNQKFKGKATLTVDKSSSTAYMELRSLTSEDSAVYYCAGGGIYYRYDRNYFDYWGQGTTLTVSS VL: DIQMTQTTSSLSASLGDRVTISCSASQGISNYLNWYQQKPDGTVKLLIYYTSSLHSGVPSRFSGSGSGTDYSLTISNLEPEDIATYYCQQYSKLPFTFGSGTKLEIK |
